PMC12731043

Target: thrombin (factor IIa)

cysteine-rich anticoagulant protein (CRA), recombinant, mature form with C-terminal His-Tag (natural protein)
thrombin time (TT), clotting time of control plasma, preparation CRA P1 at 1 µM and 5 µM (21.8 s to 66.8 s; control without protein 14.3 s and 11.7 s): 66.8 s | thrombin time (TT), clotting time of control plasma, preparation CRA P2 at 1 µM and 5 µM (16.6 s to 30.7 s; control without protein 14.3 s and 11.7 s): 30.7 s | thrombin time (TT), clotting time of control plasma, preparation CRA P3 at 1 µM and 5 µM (20.1 s to 43.3 s; control without protein 14.3 s and 11.7 s): 43.3 s
